Measured values from patent EP1803810A1.

How the values were obtained:
[1] = target: human integrin αvβ5 (human) (UniProt P06756); test: flow cytometry on HMVEC-d; competitor mAb MAB 1961
[2] = target: human integrin αvβ3 (human) (UniProt P06756); test: flow cytometry on HMVEC-d; competitor mAb LM609
[3] = target: human integrin α5β1 (human) (UniProt P08648); test: flow cytometry on HMVEC-d; competitor mAb SAM-1
[4] = target: human integrin α2β1 (human) (UniProt P17301); test: flow cytometry on HMVEC-d; competitor mAb BHA2.1
UniProt P17301, sequence (P17301 30-1181, chain 1 of 2): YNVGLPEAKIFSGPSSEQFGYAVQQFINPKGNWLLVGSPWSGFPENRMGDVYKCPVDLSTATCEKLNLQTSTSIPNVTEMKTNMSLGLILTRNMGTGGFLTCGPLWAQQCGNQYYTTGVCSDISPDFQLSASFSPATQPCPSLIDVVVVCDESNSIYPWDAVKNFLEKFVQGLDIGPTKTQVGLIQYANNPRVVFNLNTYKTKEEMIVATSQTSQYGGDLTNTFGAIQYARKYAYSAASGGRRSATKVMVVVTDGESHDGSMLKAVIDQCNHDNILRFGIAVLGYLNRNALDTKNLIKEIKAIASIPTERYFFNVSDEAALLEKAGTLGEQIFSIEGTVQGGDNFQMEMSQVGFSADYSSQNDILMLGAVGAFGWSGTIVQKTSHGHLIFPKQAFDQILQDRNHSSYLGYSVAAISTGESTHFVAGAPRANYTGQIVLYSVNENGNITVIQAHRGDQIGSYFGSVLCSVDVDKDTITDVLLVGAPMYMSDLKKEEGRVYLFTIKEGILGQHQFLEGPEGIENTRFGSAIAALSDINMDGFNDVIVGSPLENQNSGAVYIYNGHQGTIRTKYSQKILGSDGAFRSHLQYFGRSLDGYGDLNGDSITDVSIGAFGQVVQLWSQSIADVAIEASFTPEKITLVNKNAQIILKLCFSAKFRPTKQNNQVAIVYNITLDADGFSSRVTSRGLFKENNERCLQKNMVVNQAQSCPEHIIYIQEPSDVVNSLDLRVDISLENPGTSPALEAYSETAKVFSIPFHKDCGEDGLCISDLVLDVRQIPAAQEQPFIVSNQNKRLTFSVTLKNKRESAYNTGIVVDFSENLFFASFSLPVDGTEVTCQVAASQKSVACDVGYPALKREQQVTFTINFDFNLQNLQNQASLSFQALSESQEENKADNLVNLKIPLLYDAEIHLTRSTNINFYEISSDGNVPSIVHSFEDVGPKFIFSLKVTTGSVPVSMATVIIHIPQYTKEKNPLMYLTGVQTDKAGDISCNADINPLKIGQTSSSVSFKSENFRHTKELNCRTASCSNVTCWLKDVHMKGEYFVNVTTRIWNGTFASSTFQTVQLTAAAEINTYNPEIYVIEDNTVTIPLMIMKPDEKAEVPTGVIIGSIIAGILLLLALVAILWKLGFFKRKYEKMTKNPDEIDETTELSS
UniProt P17301, sequence (P05556 21-798, chain 2 of 2, further chain): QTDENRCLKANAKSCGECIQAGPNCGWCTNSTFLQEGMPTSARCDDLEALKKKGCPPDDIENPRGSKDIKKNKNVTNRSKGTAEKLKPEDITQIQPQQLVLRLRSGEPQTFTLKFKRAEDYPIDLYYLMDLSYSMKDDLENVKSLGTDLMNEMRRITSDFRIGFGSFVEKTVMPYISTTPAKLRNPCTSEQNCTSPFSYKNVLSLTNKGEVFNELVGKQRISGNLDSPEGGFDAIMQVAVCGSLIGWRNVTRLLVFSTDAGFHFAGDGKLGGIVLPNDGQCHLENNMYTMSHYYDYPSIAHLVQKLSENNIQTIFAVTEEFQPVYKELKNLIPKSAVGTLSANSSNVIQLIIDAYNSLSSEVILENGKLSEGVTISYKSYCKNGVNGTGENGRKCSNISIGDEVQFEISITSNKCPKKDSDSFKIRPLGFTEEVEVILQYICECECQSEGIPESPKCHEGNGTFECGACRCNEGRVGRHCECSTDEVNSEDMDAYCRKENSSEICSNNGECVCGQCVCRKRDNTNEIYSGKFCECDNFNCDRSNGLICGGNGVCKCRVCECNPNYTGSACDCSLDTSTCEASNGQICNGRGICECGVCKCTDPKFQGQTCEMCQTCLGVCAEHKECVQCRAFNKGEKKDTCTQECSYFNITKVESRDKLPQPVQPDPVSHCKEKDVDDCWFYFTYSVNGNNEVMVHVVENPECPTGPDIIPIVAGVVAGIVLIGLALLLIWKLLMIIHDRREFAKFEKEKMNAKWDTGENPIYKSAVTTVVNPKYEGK

[5] = target: α6β1.α6β4 (human) (UniProt P23229); test: flow cytometry on HMVEC-d; competitor α6 integrin mAb (GoH3 and/or 439-9B)
UniProt P23229, sequence (P23229 24-1130): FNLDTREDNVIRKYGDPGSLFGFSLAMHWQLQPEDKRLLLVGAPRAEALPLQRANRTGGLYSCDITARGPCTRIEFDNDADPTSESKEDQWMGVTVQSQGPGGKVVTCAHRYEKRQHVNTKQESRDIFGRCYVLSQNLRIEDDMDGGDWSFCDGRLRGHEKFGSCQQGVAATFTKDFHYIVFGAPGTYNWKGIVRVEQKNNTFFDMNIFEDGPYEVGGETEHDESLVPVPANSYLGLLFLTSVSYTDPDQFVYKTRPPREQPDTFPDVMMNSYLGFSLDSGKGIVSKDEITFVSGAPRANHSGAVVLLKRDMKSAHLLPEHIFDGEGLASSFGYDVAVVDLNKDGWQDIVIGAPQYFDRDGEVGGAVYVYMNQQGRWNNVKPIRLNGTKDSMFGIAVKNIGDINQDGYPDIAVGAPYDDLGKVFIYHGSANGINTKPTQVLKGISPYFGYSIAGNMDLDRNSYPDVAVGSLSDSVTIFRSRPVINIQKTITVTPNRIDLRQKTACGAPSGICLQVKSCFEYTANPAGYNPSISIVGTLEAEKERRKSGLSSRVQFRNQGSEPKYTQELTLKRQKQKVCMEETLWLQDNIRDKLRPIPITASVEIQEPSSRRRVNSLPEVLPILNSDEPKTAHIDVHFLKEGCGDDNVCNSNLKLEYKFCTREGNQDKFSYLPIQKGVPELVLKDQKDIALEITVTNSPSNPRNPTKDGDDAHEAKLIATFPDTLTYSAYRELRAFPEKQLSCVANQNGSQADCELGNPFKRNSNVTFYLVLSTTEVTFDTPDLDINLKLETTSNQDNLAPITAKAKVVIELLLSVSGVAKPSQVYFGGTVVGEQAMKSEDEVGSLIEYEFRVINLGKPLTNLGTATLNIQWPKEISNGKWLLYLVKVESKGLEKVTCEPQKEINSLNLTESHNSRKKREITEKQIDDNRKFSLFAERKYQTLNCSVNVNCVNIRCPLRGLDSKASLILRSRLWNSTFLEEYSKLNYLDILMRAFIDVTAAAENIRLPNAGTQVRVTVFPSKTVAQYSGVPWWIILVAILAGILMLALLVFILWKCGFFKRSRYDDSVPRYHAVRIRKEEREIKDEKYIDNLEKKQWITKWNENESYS

UniProt P08648, sequence (P08648 42-1049, chain 1 of 2): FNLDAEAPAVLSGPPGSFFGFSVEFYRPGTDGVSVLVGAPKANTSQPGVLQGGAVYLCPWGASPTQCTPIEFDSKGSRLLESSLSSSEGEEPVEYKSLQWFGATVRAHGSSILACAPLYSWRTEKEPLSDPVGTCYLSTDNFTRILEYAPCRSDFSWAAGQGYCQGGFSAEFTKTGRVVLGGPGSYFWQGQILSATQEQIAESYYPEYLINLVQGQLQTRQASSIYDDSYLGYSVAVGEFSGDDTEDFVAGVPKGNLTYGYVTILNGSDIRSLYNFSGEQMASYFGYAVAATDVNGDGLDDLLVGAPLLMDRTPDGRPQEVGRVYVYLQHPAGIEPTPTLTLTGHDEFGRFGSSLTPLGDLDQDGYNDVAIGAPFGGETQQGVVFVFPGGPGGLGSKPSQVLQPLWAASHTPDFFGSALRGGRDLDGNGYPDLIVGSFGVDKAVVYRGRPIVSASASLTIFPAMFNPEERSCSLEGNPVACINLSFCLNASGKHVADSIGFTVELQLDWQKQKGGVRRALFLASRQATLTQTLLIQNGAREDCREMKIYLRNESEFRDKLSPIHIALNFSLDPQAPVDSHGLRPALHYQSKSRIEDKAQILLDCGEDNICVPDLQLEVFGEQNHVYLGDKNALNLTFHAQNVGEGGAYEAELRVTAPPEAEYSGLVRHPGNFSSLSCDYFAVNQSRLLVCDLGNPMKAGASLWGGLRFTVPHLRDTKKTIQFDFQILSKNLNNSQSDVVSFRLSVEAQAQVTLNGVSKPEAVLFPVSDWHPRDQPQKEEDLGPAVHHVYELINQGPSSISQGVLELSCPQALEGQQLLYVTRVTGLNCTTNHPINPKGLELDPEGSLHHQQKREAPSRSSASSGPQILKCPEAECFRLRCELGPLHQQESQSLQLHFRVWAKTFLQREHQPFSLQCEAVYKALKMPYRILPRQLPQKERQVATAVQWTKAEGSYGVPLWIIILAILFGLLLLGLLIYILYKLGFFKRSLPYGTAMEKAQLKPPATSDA
UniProt P08648, sequence (P05556 21-798, chain 2 of 2, further chain): as the sequence (P05556 21-798, chain 2 of 2, further chain) above

ADAM-15dis-Fc (Fc fusion)
percent inhibition of binding by integrin mAb [1]: 25%
percent inhibition of binding by integrin mAb [2]: 60%
percent inhibition of binding by integrin mAb [3]: 30%

ADAM-23dis-Fc (Fc fusion)
percent inhibition of binding by integrin mAb [4]: 22%
percent inhibition of binding by integrin mAb [5]: 31%
percent inhibition of binding by integrin mAb [3]: 49%

ADAM-22dis-Fc (Fc fusion)
percent inhibition of binding by integrin mAb [5]: 32%
percent inhibition of binding by integrin mAb [2]: 42%
percent inhibition of binding by integrin mAb [3]: 36%

ADAM-20dis-Fc (Fc fusion)
percent inhibition of binding by integrin mAb [2]: 58%

ADAM-21dis-Fc (Fc fusion)
percent inhibition of binding by integrin mAb [3]: 54%
